Test system: human hemoglobin
Experiment: Proteolysis of human hemoglobin by proteases, fructosyl amino acid detected (Comparative Example 3)
Type: biochemical
Settings: 1 mg/mL protease, 37° C. for 30 minutes; assay apparatus 2
Description: FIG. 2 was the flow type assay apparatus for fructosyl amino acid with the dialysis module. The buffer B was pumped out from the buffer tank (24) using the pump (25), and a 100 μL portion of the sample was injected using the valve (4). The protease-immobilized enzyme column (14), the second immobilized enzyme column (19), the electrode for hydrogen peroxide (20) and the flow type calorimeter (16) were not disposed. The fructosyl amino acid oxidase-immobilized column was placed in the first immobilized enzyme column (17). The injected sample transferred with the flowing buffer B, was carried to the dialysis module (27) in the incubator (13), and only the components with low molecular weight in the sample were permeated through the regenerated cellulose membrane with the membrane thickness of 20 μm and molecular weight cut off of 12000 to 14000 to a detection system (17, 18) of the fructosyl amino acid. Since the buffer A was pumped out from the buffer tank (1) by the pump (2), the components with low molecular weight in the sample dialyzed by the dialysis module passed through the fructosyl amino acid oxidase-immobilized column (17) and the electrode for hydrogen peroxide (18), and hydrogen peroxide produced from the fructosyl amino acid in the sample was detected. […]

B1: Proteinase K: protease from Tritirachium album, Sigma-Aldrich Co. (protein, UniProt P06873 106-384, looked up)
Proteinase K: AAQTNAPWGLARISSTSPGTSTYYYDESAGQGSCVYVIDTGIEASHPEFEGRAQMVKTYYYSSRDGNGHGTHCAGTVGSRTYGVAKKTQLFGVKVLDDNGSGQYSTIIAGMDFVASDKNNRNCPKGVVASLSLGGGYSSSVNSAAARLQSSGVMVAVAAGNNNADARNYSPASEPSVCTVGASDRYDRRSSFSNYGSVLDIFGPGTSILSTWIGGSTRSISGTSMATPHVAGLAAYLMTLGKTTAASACRYIADTANKGDLSNIPFGTVNLLAYNNYQA
  Result (detected value of the fructosyl amino acid after proteolysis): C (the detected value of less than 20 pA)
